Test results: the supplement of paper PMC11865577

Assays:
Experiment in all cases: pull-down binding Z-score (relative to library population); higher = stronger binding
Details in all cases: RNA library: Library-2
[1] = tested on: TO-3-N3 (biotin conjugate)
Summary of the method: (§1)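 Binding is given as a Z-score against the library mean and standard deviation, calculated after removing the beads-only signal and averaging barcoded replicate probes without their highest and lowest values. Cy5- or Cy3-end-labelled RNA library (1 μg) was heat-folded in phosphate/NaCl/KCl buffer and incubated 60 min at 25 °C with streptavidin beads bearing 100 pmol of biotin-conjugated small molecule. After three washes, RNA eluted in hot SDS was hybridised to a DNA barcode microarray for 20 h at 55.5 °C.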

[2] = tested on: TO-N3-2 (biotin conjugate)
Summary of the method: as §1

TO-N3 (biotin conjugate) = tested on: TO-N3 (biotin conjugate)
Summary of the method: as §1

[3] = tested on: TO-3-N3-2 (biotin conjugate)
Summary of the method: as §1

Sequence	pull-down binding Z-score [1]	pull-down binding Z-score [2]	pull-down binding Z-score (TO-N3 (biotin conjugate))	pull-down binding Z-score [3]
UGAUGGUGUUCCAUUUGUAGUUUCAACUGGAUACCACUUCA [DMSMaPseq_invitro_SARS-CoV-2_Motif_261]	-0.0305	-0.82	-0.387	-0.236
UGAUGUCACAGAUGUGACUCA	-0.773	-0.946	-1.09	-0.677
UGAUGUUUGUCA	-0.46	-1.2	-0.762	-0.778
UGAUUUUUGUGGAAAGGGCUAUCAUCUUAUGUCCUUCCCUCAGUCA [SHAPE_invivo_SARS-CoV-2_Motif_462]	-0.662	-0.49	-0.702	-0.0472
UGCAACGAUACCGAUACAAGCCUCACUCCCUUUCGGAUGGCUUAUUGUUGGCGUUGCA	-0.475	-0.000368	-0.366	-0.134
UGCAAGAGAUGGUUGUGUUCCCUUGAACAUAAUACCUCUUACA [DMSMaPseq_invitro_SARS-CoV-2_Motif_219]	-0.678	-1.18	-1.01	-0.0456
UGCACUUGACCCUCUCUCAGAAACAAAGUGUA	0.756	-0.236	0.625	-0.162
UGCAGAUUCAACUUUGAUUGGUGAUUGUGCA	0.338	-0.565	0.273	0.191
UGCAGAUUUGGAUGAUUUCUCCAAACAAUUGCA	0.0526	-0.51	-0.0544	-0.117
UGCAGCAGAAACGCUCA [SHAPE_invitro_SARS-CoV-2_Motif_303]	0.273	0.533	0.371	0.0228
UGCAUUUCUUACCUAGAGUUUUUAGUGCA [DMSMaPseq_invitro_SARS-CoV-2_Motif_163]	-0.82	-1.24	-1.09	-0.416
UGCCAUUUGUCAUGAUGGAAAAGCACACUUUCCUCGUGAAGGUGUCUUUGUUUCAAAUGGCA [SHAPE_invivo_SARS-CoV-2_Motif_465]	-0.108	-0.463	-0.0789	-0.218
UGCCGACUACUAUAGCAAAGAAUACUGUUAAGAGUGUCGGUA	-0.357	-0.182	-0.385	-0.206
UGCCUUCAAACUCAACAUUAAAUUGUUGGGUGUUGGUGGCA	-0.701	-1.07	-0.909	-0.352
UGCGAGAAAUGCUUGCA [SHAPE_invitro_SARS-CoV-2_Motif_85]	1.12	-0.155	0.918	-0.0133
UGCUAACUAAGGGCA	0.877	-0.388	0.627	-0.0827
UGCUCAAGAAGCUUAUGAGCA [SHAPE_invivo_SARS-CoV-2_Motif_229]	-0.554	0.0417	-0.253	0.0729

Sequence	pull-down binding Z-score [1]	pull-down binding Z-score [2]	pull-down binding Z-score (TO-N3 (biotin conjugate))	pull-down binding Z-score [3]
UGCUGAGGCUUCUAAGAAGCCUCGGCA	0.0854	-1.28	-0.224	-0.197
UGCUGUUGUUAAAAUUUAUUGUCCAGCA [SHAPE_invitro_SARS-CoV-2_Motif_28]	-0.341	-0.921	-0.582	-0.134
UGCUUUCGUGGUA	0.137	-0.505	0.0358	-0.292
UGCUUUGGUGUAAAGAUGGCCAUGUAGAAACAUUUUACCCAAAAUUACAAUCUAGUCAAGCGUGGCAACCGGGUGUUGCUAUGCCUAAUCUUUACAAAAUGCA	-0.104	0.252	0.0858	-0.00692
UGGAAUUGCAAUGUCGAUAGAUAUCCUGCUAAUUCCA	-0.0259	-0.0708	0.0215	0.0197
UGGAGGAAUACAAAUCCA [SHAPE_invitro_SARS-CoV-2_Motif_386]	0.291	-0.404	0.109	0.00658
UGGAUGUAAUUAUCUUGGCAAACCACGCGAACAAAUAGAUGGUUAUGUCAUGCAUGCA	-0.833	0.157	-0.682	-0.0277
UGGCAUGGAAGUCA [DMSMaPseq_invitro_SARS-CoV-2_Motif_525]	0.0287	-0.318	-0.262	-0.289
UGGCAUUAAUGCUUCAGUUGUAAACAUUCAAAAAGAAAUUGACCGCCUCAAUGAGGUUGCCA	-0.964	-0.663	-1.1	-0.207
UGGCCAUGGUACAUUUGGCUA	0.537	-0.59	0.286	-0.0742
UGGCCCCGAUUUCAGCUAUGGUUA [SHAPE_invitro_SARS-CoV-2_Motif_146]	-0.129	0.341	-0.032	-0.0487
UGGCCGCAAAUUGCACAAUUUGCCCCCA [SHAPE_invitro_SARS-CoV-2_Motif_532]	-0.293	-0.6	-0.363	-0.435
UGGGAUAUUGCCCG [IAV_invivo_PB2_1_Motif_20+IAV_invivo_PB2_1_Motif_20]	-0.462	-0.104	-0.0714	-0.289
UGGGAUUAUCCUA [DMSMaPseq_invitro_SARS-CoV-2_Motif_276]	0.251	-0.609	-0.106	-0.249
UGGGCACACUUUCUUAUGAACAAUUUAAGAAAGGUGUUCA [SHAPE_invivo_SARS-CoV-2_Motif_116]	-0.385	-0.779	-0.52	-0.384
UGGGGACCAGGAACUAAUCAGACAAGGAACUGAUUACAAACAUUGGCCGCAAAUUGCACAAUUUGCCCCCA	-0.075	0.83	0.312	0.0998
